Holding throughout (conditions): modification not given
Assay [1] concerns the target LgTrip 3546 (with His tag; SEQ ID NO: 51).
Assay [2] has the same target. The experiment in a line: luminescence complementation; SmTrip9 Kd.
For assay [3] the target is unchanged. Briefly: luminescence complementation; SmTrip9 Kd. The source holds these as a separate data set.
For assay [4] the target is unchanged. The experiment in a line: luminescence complementation.
For assay [5] the target is unchanged. The experiment in a line: luminescence complementation. This is another data set of the same source.
Assay [6] shares this target. This is another data set of the same source.
Assay [7] shares this target. Briefly: luminescence complementation; SmTrip9 Kd. This is another data set of the same source.
For assay [8] the target is unchanged. The experiment in a line: luminescence complementation. This is another data set of the same source.
Assay [9] shares this target. The experiment in a line: luminescence complementation. This is another data set of the same source.
The target is the same in assay [10]. The source holds these as a separate data set.
Assay [11] has the same target. The experiment in a line: luminescence complementation; SmTrip9 Kd. The source holds these as a separate data set.
For assay [12] the target is unchanged. The experiment in a line: luminescence complementation; SmTrip9 Kd. The source holds these as a separate data set.
Assay [13] has the same target. Briefly: luminescence complementation; SmTrip9 Kd. This is another data set of the same source.
Assay [14] shares this target. Briefly: luminescence complementation. The source holds these as a separate data set.

Read-outs that look alike come from different tables or passages of the source.

Usually Kd stands for a measure of binding affinity in units of concentration.

LgTrip 3546 (with His tag; SEQ ID NO: 51), sequence (chain, as listed by the source): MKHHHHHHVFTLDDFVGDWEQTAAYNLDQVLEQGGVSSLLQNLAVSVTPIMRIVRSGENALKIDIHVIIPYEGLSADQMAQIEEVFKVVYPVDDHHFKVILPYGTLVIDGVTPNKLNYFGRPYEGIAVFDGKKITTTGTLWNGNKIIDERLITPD

B1: 428 (peptide)
chain: SSKRGSMLFRVTIWSV
As to B1, the Kd in assay [1] turned out to be 40 nM.

B2: 758 (peptide)
chain: DKLLFTVTIEKWK
With B2, the Kd in assay [2] came to 520 nM; in assay [3], 190 nM.

B3: 671 (peptide)
chain: GKMLFRVTIQKWK
Consider B3, for which the Kd in [4] is 20 nM; in assay [5] it was 60 nM.

B4: 302 (peptide)
chain: SSWKRMLFRVTINSVS
With B4, in assay [6], the Kd is 520 nM.

B5: 757 (peptide)
chain: DKLLFTVTIQKYK
Consider B5, for which the Kd in assay [3] was 190 nM; in assay [7] it was 360 nM.

B6: 668 (peptide)
chain: GKMLFRVTIGKWK
With B6, the Kd in assay [8] was 60 nM; in assay [5], 130 nM.

B7: 742 (peptide)
chain: DKMLFRVTIEKWK
Turning to B7, the results for the Kd in [3] and in assay [5] were 1000 nM and 750 nM, respectively.

B8: 622 (peptide)
chain: GKMLFRVTIESWK
With B8, the Kd in assay [9] worked out at 2880 nM; in assay [5], 7240 nM.

B9: 427 (peptide)
chain: SSWKRGSMLFRVWINS
In assay [10], B9 registered a Kd of 230 nM.

B10: 759 (peptide)
chain: DKLLFTVTIEKYK
For the molecule B10, the Kd is 560 nM in [3] and 330 nM in assay [11].

B11: 756 (peptide)
chain: DKLLFTVTIQKWK
For the molecule B11, the results for the Kd in [3] and in assay [12] were 950 nM and 480 nM, respectively.

B12: 745 (peptide)
chain: DKMLFTVTIQKWK
B12: the Kd was determined as 300 nM in assay [13], 200 nM in assay [3] and 160 nM in [5].

B13: 620 (peptide)
chain: GKMLFRVTINSYK
Consider B13, for which the Kd was determined as 120 nM in [14] and 190 nM in [5].

B14: 749 (peptide)
chain: DKMLFTVTIGKWK
As to B14, the Kd was determined as 1060 nM in [3] and 1700 nM in assay [5].

B15: 738 (peptide)
chain: DKMLFRVTIQKWK
B15: the Kd in assay [3] was 110 nM; in assay [5], 230 nM.

Source of the values: patent publication US20200270586A1.
